B1: FAS-associated factor 1 (Homo sapiens), Q9UNN5-1 (parent)
chain: MASNMDREMILADFQACTGIENIDEAITLLEQNNWDLVAAINGVIPQENGILQSEYGGETIPGPAFNPASHPASAPTSSSSSAFRPVMPSRQIVERQPRMLDFRVEYRDRNVDVVLEDTCTVGEIKQILENELQIPVSKMLLKGWKTGDVEDSTVLKSLHLPKNNSLYVLTPDLPPPSSSSHAGALQESLNQNFMLIITHREVQREYNLNFSGSSTIQEVKRNVYDLTSIPVRHQLWEGWPTSATDDSMCLAESGLSYPCHRLTVGRRSSPAQTREQSEEQITDVHMVSDSDGDDFEDATEFGVDDGEVFGMASSALRKSPMMPENAENEGDALLQFTAEFSSRYGDCHPVFFIGSLEAAFQEAFYVKARDRKLLAIYLHHDESVLTNVFCSQMLCAESIVSYLSQNFITWAWDLTKDSNRARFLTMCNRHFGSVVAQTIRTQKTDQFPLFLIIMGKRSSNEVLNVIQGNTTVDELMMRLMAAMEIFTAQQQEDIKDEDEREARENVKREQDEAYRLSLEADRAKREAHEREMAEQFRLEQIRKEQEEEREAIRLSLEQALPPEPKEENAEPVSKLRIRTPSGEFLERRFLASNKLQIVFDFVASKGFPWDEYKLLSTFPRRDVTQLDPNKSLLEVKLFPQETLFLEAKE

Variants of: B1
Conditions: with tera_human VCP

| Variant | effect of a mutation on the interaction |
| --- | --- |
| R579A | decreasing interaction |
| F619A | decreasing interaction |
| P620N | decreasing interaction |

Now from value to variant:

| effect of a mutation on the interaction | Variant |
| --- | --- |
| decreasing interaction | R621A |
| decreasing interaction | P640N |
